Reference: publication doi:10.1101/2025.06.10.658980, “Structures reveal how the Cas1-2/3 integrase captures, delivers, and integrates foreign DNA into CRISPR loci” (bioRxiv, 2025)

B1: Cas1 (type I-F, Pseudomonas aeruginosa PA14), StrepII-tagged (enzyme)
chain: MDDISPSELKTILHSKRANLYYLQHCRVLVNGGRVEYVTDEGRHSHYWNIPIANTTSLLLGTGTSITQAAMRELARAGVLVGFCGGGGTPLFSANEVDVEVSWLTPQSEYRPTEYLQRWVGFWFDEEKRLVAARHFQRARLERIRHSWLEDRVLRDAGFAVDATALAVAVEDSARALEQAPNHEHLLTEEARLSKRLFKLAAQATRYGEFVRAKRGSGGDPANRFLDHGNYLAYGLAATATWVLGIPHGLAVLHGKTRRGGLVFDVADLIKDSLILPQAFLSAMRGDEEQDFRQACLDNLSRAQALDFMIDTLKDVAQRSTVSA
notes: Four Cas1 subunits (two homodimers) stand in the Cas1-2/3 heterohexamer; also called StrepII-tagged Cas1; Cas1a; source: E. coli BL21(DE3), co-expressed with Cas2/3 from a single plasmid; in lysate, and purified (StrepTrap HP, Superdex 200); not shown: StrepII, N-terminal, kept

Columns and labels:
[1] = target: B1; test: SEC; affinity-purified Cas1-2/3 on Superdex 200 in 10 mM HEPES pH 7.5, 500 mM potassium glutamate, 10% glycerol; single peak, estimated ~380 kDa; conditions: both partners purified
[2] = target: the molecule itself; test: cryo-EM structure; Cas1-2/3 capture complex without nucleic acid, 12.8 uM, 3.3 Å

Binder	stoichiometry N [1]	stoichiometry N [2]
Cas2/3 fusion protein (type I-F, Pseudomonas aeruginosa PA14), untagged (enzyme, Two Cas2/3 subunits stand in the Cas1-2/3 heterohexamer, joined through the Cas2 homodimer; also called Cas3; Cas3a; source: E. coli BL21(DE3), co-expressed with StrepII-Cas1 from a single plasmid; in lysate, and purified with Cas1 (StrepTrap HP, Superdex 200)) MNILLVSQCEKRALSETRRILDQFAERRGERTWQTPITQAGLDTLRRLLKKSARRNTAVACHWIRGRDHSELLWIVGDASRFNAQGAVPTNRTCRDILRKEDENDWHSAEDIRLLTVMAALFHDIGKASQAFQAKLRNRGKPMADAYRHEWVSLRLFEAFVGPGSSDEDWLRRLADKRETGDAWLSQLARDDRQSAPPGPFQKSRLPPLAQAVGWLIVSHHRLPNGDHRGSASLARLPAPIQSQWCGARDADAKEKAACWQFPHGLPFASAHWRARTALCAQSMLERPGLLARGPALLHDSYVMHVSRLILMLADHHYSSLPADSRLGDPNFPLHANTDRDSGKLKQRLDEHLLGVALHSRKLAGTLPRLERQLPRLARHKGFTRRVEQPRFRWQDKAYDCAMACREQAMEHGFFGLNLASTGCGKTLANGRILYALADPQRGARFSIALGLRSLTLQTGQAYRERLGLGDDDLAILVGGSAARELFEKQQERLERSGSESAQELLAENSHVHFAGTLEDGPLREWLGRNSAGNRLLQAPILACTIDHLMPASESLRGGHQIAPLLRLMTSDLVLDEVDDFDIDDLPALSRLVHWAGLFGSRVLLSSATLPPALVQGLFEAYRSGREIFQRHRGAPGRATEIRCAWFDEFSSQSSAHGAVTSFSEAHATFVAQRLAKLEQLPPRRQAQLCTVHAAGEARPALCRELAGQMNTWMADLHRCHHTEHQGRRISFGLLRLANIEPLIELAQAILAQGAPEGLHVHLCVYHSRHPLLVRSAIERQLDELLKRSDDDAAALFARPTLAKALQASTERDHLFVVLASPVAEVGRDHDYDWAIVEPSSMRSIIQLAGRIRRHRSGFSGEANLYLLSRNIRSLEGQNPAFQRPGFETPDFPLDSHDLHDLLDPALLARIDASPRIVEPFPLFPRSRLVDLEHRRLRALMLADDPPSSLLGVPLWWQTPASLSGALQTSQPFRAGAKERCYALLPDEDDEERLHFSRYEEGTWSNQDNLLRNLDLTYGPRIQTWGTVNYREELVAMAGREDLDLRQCAMRYGEVRLRENTQGWSYHPYLGFKKYN	2 Cas1 per Cas2/3 (4:2)	2
B1		2
